Experimental findings from patent US20070065819A1 (Takeda / Millennium, published 2007) are described below.

Where no end group is shown, it is not given here. The star is where a group is joined. For = O=C*

For the experiment, the target named is T1, human FPRL1 (human, UniProt P25090 1-351).
T1 construct: Expressed in CHO cells (No. 8); also called human-derived FPRL1
T1 sequence: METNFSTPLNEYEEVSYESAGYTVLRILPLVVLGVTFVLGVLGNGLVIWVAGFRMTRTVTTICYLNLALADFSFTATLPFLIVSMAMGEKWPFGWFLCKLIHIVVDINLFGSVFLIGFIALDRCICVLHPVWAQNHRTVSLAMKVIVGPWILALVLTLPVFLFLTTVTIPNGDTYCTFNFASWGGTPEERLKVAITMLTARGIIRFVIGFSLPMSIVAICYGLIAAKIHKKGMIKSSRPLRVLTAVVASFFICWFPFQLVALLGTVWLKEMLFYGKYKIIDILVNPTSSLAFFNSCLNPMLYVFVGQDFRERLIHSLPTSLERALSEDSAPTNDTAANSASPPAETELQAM
Briefly: competitive inhibition of binding of 125I-labeled compound to membrane fraction of human FPRL1-expressing CHO cells, filter trapping. How it is done:
Then, by reverse phase HPLC using TSKgel ODS-80TM CTR 4.6 x 100 mm column, a peak of labeled form, which was produced by the reaction, was fractionated. The fraction was mixed with an equal volume of assay buffer (50 mM Tris-HCI/pH7.5, 5 mM EDTA, 0.5 mM PMSF, 20 μg/ml leupeptine, 0.1 μtg/ml pepstatin A, 4 μg/ml E-64 (Peptide Institute), and 0.1% bovine serum albumin) and stored at −30° C. until use.
Human FPRL1-expressing CHO cells (No. 8) were cultivated, collected using PBS containing 5 mM EDTA from culture vessel, and suspended in assay buffer containing no bovine serum albumin, which is described above. Homogenization using Polytron homegenizer (Kinematica) at 18,000 rpm for 40 seconds was performed three times. After centrifugation (1000xg, 4° C., 10 minutes), supernatant was recovered. […]
Competitive inhibition test was carried out under the following conditions. […] After completely drying the filter, Microcinti 0 (Packard) was added to the filter, and a level of labeled form co-trapped with the membrane fraction on the filter was measured using Topcount (Pakard). Non-specific binding level was subtracted from each measured value. Then the ratio of reduced binding level by addition of test sample to the well with notest sample (total binding level), that is, the inhibition rate was calculated. Further, from dosage of test sample-inhibition curve, IC₅₀ was calculated (Table 1).

B1: porcine FPRL1 ligand P3 (pfCYOX-1(1-13)) (peptide)
peptide: For-MFVNRWLYSTNHK
notes: The purified fraction also held a Met(O) oxidant; also called porcine FPRL ligand P3; porcine intrinsic FPRL1 ligand P3
In general, IC50 refers to the concentration that gives 50% inhibition. A higher IC50 goes with weaker potency. For B1, the IC50 was found to be 0.15 nM.

B2: human FPRL1 ligand P3 (hfCYOX-1(1-13)) (peptide)
peptide: For-MFADRWLFSTNHK
notes: Synthesized at Peptide Institute, Inc; also called human FPRL ligand P3
Regarding B2, the IC50 was 1.1 nM.
